Source: the PETadex activity labels

Experiments:
[1] = substrate: pNPB; assay: Proxy for plastic degradation [Residual activity]; conditions: pH 8
[2] = substrate: PET; assay: Proxy for plastic degradation [Weight/mass loss]
[3] = substrate: PET; assay: Proxy for plastic degradation [Absorbance @ 240nm]
[4] = Proxy for plastic degradation [Weight/mass loss]; conditions: pH 8
[5] = substrate: PCL; assay: Proxy for plastic degradation [Residual activity]; conditions: pH 8
[6] = substrate: PET; assay: Proxy for plastic degradation [Released monomer concentration (HPLC/LC-MS) (MHET+TPA)]; conditions: pH 8
[7] = substrate: PET; assay: Proxy for plastic degradation [adsorption equilibrium constant (K_A), utilising heterogeneous kinetic model]; conditions: pH 8
[8] = substrate: PET; assay: Proxy for plastic degradation [MHET inhibitor binding constant (beta), utilising the kinetic inhibition model]; conditions: pH 8
[9] = substrate: PET; assay: Proxy for plastic degradation [hydrolysis rate constant (k_h), utilising heterogeneous kinetic model] (µmol/(cm²·h)); conditions: pH 8

B1: unnamed (protein)
chain: SNPYQRGPNPTRSALTADGPFSVATYTVSRLSVSGFGGGVIYYPTGTSLTFGGIAMSPGYTADASSLAWLGRRLASHGFVVLVINTNSRFDYPDSRASQLSAALNYLRTSSPSAVRARLDANRLAVAGHSMGGGGTLRIAEQNPSLKAAVPLTPWHTDKTFNTSVPVLIVGAEADTVAPVSQHAIPFYQNLPSTTPKVYVELDNASHFAPNSNNAAISVYTISWMKLWVDNDTRYRQFLCNVNDPALSDFRTNNRHCQHHHHHH
Which results are given for B1?
Proxy for plastic degradation ([1]; 40 °C): 100%; Proxy for plastic degradation ([1]; 50 °C): 100%; Proxy for plastic degradation ([1]; 90 °C): 0%; Proxy for plastic degradation ([1]; 95 °C): 0%

B2: unnamed (protein)
chain: ANPYERGPNPTDALLEARSGPFSVSEENVSRLSASGFGGGTIYYPRENNTYGAVAISPGYTATEASIAWLGERIASHGFVVITIDTITTLDQPDSRAEQLNAALNHMINRASSTVRSRIDSSRLAVMGHSMGGGGSLRLASQRPDLKAAIPLTPWHLNKNWSSVTVPTLIIGADLDTIAPVATHAKPFYNSLPSSISKAYLELDGATHAAPNIPNKIIGKYSVAWLKRFVDNDTRYTQFLCPGPRDGLFGEVEEYRSTCPFYPNSSSVDKLAAALE
With B2 as the protein, how does the “Proxy for plastic degradation” value ([2]; pH 9, 6 h) read?
The value was 20%.

B3: unnamed (protein)
chain: MFQRVWALTAALMLMLSLGATSSHAAQNPHERGPDPSNSYIEQARGSYSVSQRSISRLGSDGFRDGTMYYPTSTADGRFGVVAISPGYTASESTIAWLGPRLASFGFVVVTINTDSRYDQPRQRATQLHAALDHAIGDSVVGPRIDTSRQAVMGHSMGGGGALQAAEERDEIRAAVPLTPWNLKKGWSGVDAATLVIGAENDAIAPVRSHSIPFYESLTNAERRAYLELRREGHFAPNSSNTLIAKYSVSWLKRYVDNDLRYDQFIDPGPRTGITTGVSDYRLG
Which “Proxy for plastic degradation” value ([3]; pH 8, 0 h) does the source give for B3 here?
Its value is 0 µM.

What about the “Proxy for plastic degradation” value ([3]; pH 8, 10 °C) of the same protein?
Its value is 0.012 AU.

And the “Proxy for plastic degradation” value ([3]; pH 8, 28 °C)?
Its value is 0.016 AU.

What about the “Proxy for plastic degradation” value ([3]; pH 8, 37 °C) of the same protein?
Its value is 0.045 AU.

What about the “Proxy for plastic degradation” value ([3]; pH 8, 45 °C) of the same protein?
Its value is 0.073 AU.

What about the “Proxy for plastic degradation” value ([3]; pH 8.5) of the same protein?
The value was 0.199 AU.

What about the “Proxy for plastic degradation” value ([3]; pH 9.5) of the same protein?
Its value is 0.085 AU.

What about the “Proxy for plastic degradation” value ([3]; pH 10.5) of the same protein?
The value was 0.015 AU.

B4: unnamed (protein)
chain: MARTMRSRVVAGAVACAMSIAPFAGTTAVMTLATTHAAMAATAPAAGYAATRYPIILVHGLSGTDKYAGVLEYWYGIQEDLQQNGATVYVANLSGFQSDDGPNGRGEQLLAYVKTVLAATGATKVNLVGHSQGGLSSRYVAAVAPDLVASVTTIGTPHRGSEFADFVQDVLAYDPTGLSSSVIAAFVNVFGILTSSSHNTNQDALAALQTLTTARAATYNQNYPSAGLGAPGSCQTGAPTETVGGNTHLLYSWAGTAIQPTLSVFGVTGATDTSTLPLVDPANVLDLSTLALFGTGTVMINRGSGQNDGLVSKCSALYGKVLSTSYKWNHLDEINQLLGVRGAYAEDPVAVIRTHANRLKLAGV
What does the source list for B4?
Proxy for plastic degradation [4]: 2.8 mg; Proxy for plastic degradation ([2]; pH 8): 0 mg

B5: unnamed (protein)
chain: ANPYERGPNPTDALLEARSGPFSVSEENVSRLSASGFGGGTIYYPRENNTYGAVAISPGYTGTEASIAWLGERIASHGFVVITIDTITTLDQPDSRAEQLNAALNHMINRASSTVRSRIDSSRLAVMGHSMGGGGSLRLASQRPDLKAAIPLTPWHLNKNSSVTVPTLIIGADLDTIAPVATHAKPFYNSLPSSISKAYLELDGATHFAPNIPNKIIGKYSVAWLKRFVDNDTRYTQFLCPGPRDGLFGEVEEYRSTCPFY
Which “Proxy for plastic degradation” value ([2]; pH 8) does the source give for B5 here?
The value was 15.9%.

What about the “Proxy for plastic degradation” value [5] of the same protein?
Its value is 36.5%.

What about the “Proxy for plastic degradation” value [6] of the same protein?
Its value is 27 µM.

What about the “Proxy for plastic degradation” value [7] of the same protein?
Its value is 0.338 mL/µg.

And the “Proxy for plastic degradation” value [8]?
The value was 0.738 L/mmol.

What about the “Proxy for plastic degradation” value [9] of the same protein?
Its value is 0.094.

B6: unnamed (protein)
chain: MELALALSLIASVAAAPTATLANGDTITGLNAIINEAFLGIPFAEPPVGNLRFKDPVPYSGSLDGQKFTSYGPSCMQQNPEGTYEENLPKAALDLVMQSKVFEAVSPSSEDCLTINVVRPPGTKAGANLPVMLWIFGGGFEVGGTSTFPPAQMITKSIAMGKPIIHVSVNYRVSSWGFLAGDEIKAEGSANAGLKDQRLGMQWVADNIAAFGGDPTKVTIFGESAGSMSVMCHILWNDGDNTYKGKPLFRAGIMQSGAMVPSDAVDGIYGNEIFDLLASNAGCGSASDKLACLRGVSSDTLEDATNNTPGFLAYSSLRLSYLPRPDGVNITDDMYALVREGKYANIPVIIGDQNDEGTFFGTSSLNVTTDAQAREYFKQSFVHASDAEIDTLMTAYPGDITQGSPFDTGILNALTPQFKRISAVLGDLGFTLARRYFLNHYTGGTKYSFLSKQLSGLPVLGTFHSNDIVFQDYLLGSGSLIYNNAFIAFATDLDPNTAGLLVKWPEYTSSSQSGNNLMMINALGLYTGKDNFRTAGYDALFSNPPSFFV
Which “Proxy for plastic degradation” value [4] does the source give for B6 here?
The value was 0.2 mg.

What about the “Proxy for plastic degradation” value ([2]; pH 8) of the same protein?
Its value is 0 mg.
